Measurements published in patent US20090054342A1 (COMPUGEN, published 2009).
Values belong to the molecule of their own block, whether it stands above or below them. No end group written: not given here.

Legend:
[1] = target: MrgX1 (Mas-related G-protein coupled receptor member X1) (UniProt Q96LB2); experiment: cell-based or functional assay
[2] = target: MrgX1 (Mas-related G-protein coupled receptor member X1) (UniProt Q96LB2 1-322, limits assumed); experiment: cell-based or functional assay
Mas receptor = target: T1, Mas receptor (UniProt P04201 1-325, limits assumed); experiment: cell-based or functional assay
T1 sequence (looked up): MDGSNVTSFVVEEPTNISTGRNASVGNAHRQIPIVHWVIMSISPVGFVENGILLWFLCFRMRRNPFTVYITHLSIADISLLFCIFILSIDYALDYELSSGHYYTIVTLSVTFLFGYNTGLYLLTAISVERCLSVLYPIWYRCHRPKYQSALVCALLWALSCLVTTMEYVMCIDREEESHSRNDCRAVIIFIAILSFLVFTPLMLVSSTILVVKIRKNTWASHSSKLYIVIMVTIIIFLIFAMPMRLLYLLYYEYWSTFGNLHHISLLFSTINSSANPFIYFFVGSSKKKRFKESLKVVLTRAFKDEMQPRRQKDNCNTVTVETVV

[3] = target: T2, FPRL1 (FPR-related receptor 1) (UniProt P25090 1-351, limits assumed); experiment: competitive radioligand binding against 0.025 nM [125I] WKYMVm on FPRL1-transfected CHO cells, 90 min at 25 C
T2 construct: whole, on cells; Expressed in CHO cells (with Gα16 in the calcium flux assay); also called lipoxin A4 receptor; LXA4R
T2 sequence (looked up): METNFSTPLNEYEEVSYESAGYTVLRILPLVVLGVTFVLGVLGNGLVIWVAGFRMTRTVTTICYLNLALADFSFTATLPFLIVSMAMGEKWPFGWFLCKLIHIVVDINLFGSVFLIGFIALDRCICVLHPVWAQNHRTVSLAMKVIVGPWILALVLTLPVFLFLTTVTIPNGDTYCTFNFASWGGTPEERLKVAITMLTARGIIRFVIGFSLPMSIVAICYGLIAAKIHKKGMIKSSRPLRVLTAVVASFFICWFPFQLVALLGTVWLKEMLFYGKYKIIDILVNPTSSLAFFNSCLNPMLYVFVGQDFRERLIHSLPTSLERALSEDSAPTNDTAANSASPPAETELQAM
Protocol: The specific binding of Peptide 58 (SEQ ID NO:1) to FPRL1 was analyzed by testing its ability to compete with 0.025 nM [¹²⁵I] WKYMVm (W peptide), a known agonist of FPRL1, for binding to FPRL1 in CHO transfected cells. CKβ8-1 (aa 46-137), another known ligand of FPRL1 was used as a positive control in this assay (Chiang et al 2006, Pharmacological Reviews 58, 463-487). Peptides were incubated with cells for 90 minutes at 25° C., in the presence of Incubation Buffer (50 mM HEPES, pH 7.4, 100 mM NaCl, 5 mM KCl, 5 mM MgCl2, 2 mM Ca C12, 0.5% BSA) and the amount of radioactive W peptide was measured.

Sequence of MrgX1 (Mas-related G-protein coupled receptor member X1) (UniProt Q96LB2 1-322, limits assumed) (Q96LB2 whole entry): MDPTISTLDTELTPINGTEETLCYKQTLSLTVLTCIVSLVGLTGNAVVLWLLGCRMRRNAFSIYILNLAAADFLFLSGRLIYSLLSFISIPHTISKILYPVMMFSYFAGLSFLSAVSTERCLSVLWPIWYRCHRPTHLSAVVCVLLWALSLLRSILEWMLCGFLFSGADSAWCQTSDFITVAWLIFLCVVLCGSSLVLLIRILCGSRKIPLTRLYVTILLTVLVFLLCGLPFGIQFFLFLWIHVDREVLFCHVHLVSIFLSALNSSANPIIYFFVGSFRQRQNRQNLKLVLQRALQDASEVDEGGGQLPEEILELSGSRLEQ
Sequence of MrgX1 (Mas-related G-protein coupled receptor member X1) (UniProt Q96LB2) (Q96LB2 whole entry): as above

EC50 (calcium flux dose response) [2]: ≥ 300 nM
Molecule: GIGSVWHWKHRVATRFTLPRFLQ [Peptide 60_S]

EC50 (calcium flux dose response) (Mas receptor): ≥ 500 nM
Molecule: FLGYSIYLNRKRRGDPAFKRRLRD [Peptide 61_S]

IC50 [3]: 189 nM | Ki [3]: 54.1 nM
B1: Peptide 58 (peptide)
peptide: TIPMFVPESTSKLQKFTSWFM-NH2
notes: Synthetic peptide (SPPS); also called P58; peptide P58

Further lines, the molecule ahead of its results:

Molecule: BAM22 (bovine adrenal medulla peptide 22) (from UniProt P01211 206-227)
EC50 (calcium flux dose response) [1]: > 50 nM

Molecule: SMVHRWSRAVLFPAAHRP (also: acetate salt) [Peptide 33_V]
EC50 (calcium flux dose response) (Mas receptor): ≥ 1000 nM
